Experiment [1] concerns the target T1, SH3-inactivated (W97A) Lck (UniProt P06239 2-509, limits assumed).
T1 construct: whole, on cells; also called Lck W97A
Put plainly: anti-Myc IP from stimulated JCam1.6 cells reconstituted with Lck W97A, immunoblot for Lck (FIG. 12). The method, then:
FIG. 12 Interaction between CD28 and the V3 of PKCθ is Lck-dependent. PKCθ-Lck-CD28 association in Lck-deficient (JCam1.6) Jurkat cells cotransfected with Myc-tagged PKCθ−V3 plus WT Lck or its indicated mutants, Transfected cells were stimulated with anti-CD3 and anti-CD28 for 5 min, immunoprecipitated with an anti-Myc Ab, and immunoblotted for Lck and endogenous CD28. Data are from three experiments.
For orientation: In western blotting, separated proteins are transferred to a membrane and probed.

In experiment [2] the target is T2, CD28, endogenous in primary mouse CD4+ T cells (mouse, UniProt P31041 20-218).
T2 construct: whole, on cells; Immunoprecipitated with anti-CD28 mAb from lysates of retrovirally transduced mouse T cells; also called murine CD28
T2 sequence (P31041 20-218): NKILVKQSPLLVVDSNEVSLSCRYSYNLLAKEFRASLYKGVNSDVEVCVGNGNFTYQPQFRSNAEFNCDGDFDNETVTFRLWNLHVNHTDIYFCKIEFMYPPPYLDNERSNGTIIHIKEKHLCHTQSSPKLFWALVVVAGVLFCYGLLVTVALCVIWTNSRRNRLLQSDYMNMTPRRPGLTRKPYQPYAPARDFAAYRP
Put plainly: anti-CD28 co-IP, stimulated transduced PKCθ-/- T cells (FIG. 4c).

T1 sequence (P06239 2-509 W97A limits assumed): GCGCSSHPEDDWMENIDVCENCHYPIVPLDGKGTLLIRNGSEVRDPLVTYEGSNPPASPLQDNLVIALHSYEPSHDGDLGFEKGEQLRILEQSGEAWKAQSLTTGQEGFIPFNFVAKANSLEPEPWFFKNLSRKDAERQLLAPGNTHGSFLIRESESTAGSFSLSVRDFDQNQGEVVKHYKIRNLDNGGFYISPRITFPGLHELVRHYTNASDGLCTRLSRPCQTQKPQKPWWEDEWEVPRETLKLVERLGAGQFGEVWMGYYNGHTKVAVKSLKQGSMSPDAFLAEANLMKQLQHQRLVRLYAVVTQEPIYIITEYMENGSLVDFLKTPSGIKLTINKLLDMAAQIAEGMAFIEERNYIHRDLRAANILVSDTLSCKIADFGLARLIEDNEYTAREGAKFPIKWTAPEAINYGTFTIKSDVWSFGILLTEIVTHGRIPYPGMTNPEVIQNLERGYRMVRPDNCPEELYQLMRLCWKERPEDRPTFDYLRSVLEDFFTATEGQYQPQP

B1: Myc-tagged PKCθ V3 domain (aa 282-379 of human PKCθ, N-terminal Myc tag) (other)
chain: GINQKLMAEALAMIESTQQARCLRDTEQIFREGPVEIGLPCSIKNEARPPCLPTPGKREPQGISWESPLDEVDKMCHLPEPELNKERPSLQIKLKIED
notes: also called Myc-tagged V3; isolated V3 domain; not shown: N-terminal Myc tag of the pMIG vector
On to B1, for which the binding result in experiment [1] is “no binding”.

B2: PKCθ P330/1/4/6A (4P-A; all four Pro residues of the PR motif mutated to alanine) (enzyme)
chain: MSPFLRIGLSNFDCGSCQSCQGEAVNPYCAVLVKEYVESENGQMYIQKKPTMYPPWDSTFDAHINKGRVMQIIVKGKNVDLISETTVELYSLAERCRKNNGKTEIWLELKPQGRMLMNARYFLEMSDTKDMNEFETEGFFALHQRRGAIKQAKVHHVKCHEFTATFFPQPTFCSVCHEFVWGLNKQGYQCRQCNAAIHKKCIDKVIAKCTGSAINSRETMFHKERFKIDMPHRFKVYNYKSPTFCEHCGTLLWGLARQGLKCDACGMNVHHRCQTKVANLCGINQKLMAEALAMIESTQQARCLRDTEQIFREGPVEIGLPCSIKNEARAACLATAGKREPQGISWESPLDEVDKMCHLPEPELNKERPSLQIKLKIEDFILHKMLGKGSFGKVFLAEFKKTNQFFAIKALKKDVVLMDDDVECTMVEKRVLSLAWEHPFLTHMFCTFQTKENLFFVMEYLNGGDLMYHIQSCHKFDLSRATFYAAEIILGLQFLHSKGIVYRDLKLDNILLDKDGHIKIADFGMCKENMLGDAKTNTFCGTPDYIAPEILLGQKYNHSVDWWSFGVLLYEMLIGQSPFHGQDEEELFHSIRMDNPFYPRWLEKEAKDLLVKLFVREPEKRLGVRGDIRQHPLFREINWEELERKEIDPPFRPKVKSPFDCSNFDKEFLNEKPRLSFADRALINSMDQNMFRNFSFMNPGMERLIS
Regarding B2, the binding result in experiment [2] was “no binding”.

These data come from US20180335433A1 (LA JOLLA INSTITUTE FOR ALLERGY AND IMMUNOLOGY, published 2018).
